Laboratory results taken from US20210179684A1.

Columns and labels:
[1] = molecular target: p75 neurotrophin receptor on cells (NIH-p75); assay: flow cytometry on NIH-p75 cells; 20 nM Biotin-NT3, fluorescent avidin; no competitor
[2] = molecular target: TrkC receptor on cells (NIH-TrkC); assay: flow cytometry on NIH-TrkC cells; 20 nM Biotin-NT3, fluorescent avidin; no competitor
[3] = molecular target: TrkA receptor on cells (NIH-TrkA); assay: flow cytometry on NIH-TrkA cells; 20 nM Biotin-NT3, fluorescent avidin; no competitor
[4] = molecular target: p75 neurotrophin receptor on cells (NIH-p75); assay: competition flow cytometry on NIH-p75 cells; 20 nM Biotin-NT3 tracer, cold competitor at 200 nM; value is the tracer signal left
[5] = molecular target: p75 neurotrophin receptor on cells (NIH-p75); assay: competition flow cytometry on NIH-p75 cells; 20 nM Biotin-NT3 tracer, cold competitor at 200 nM; value is the tracer binding left
[6] = molecular target: TrkC receptor on cells (NIH-TrkC); assay: competition flow cytometry on NIH-TrkC cells; 20 nM Biotin-NT3 tracer, cold competitor at 200 nM; value is the tracer binding left
[7] = molecular target: TrkA receptor on cells (NIH-TrkA); assay: competition flow cytometry on NIH-TrkA cells; 20 nM Biotin-NT3 tracer, cold competitor in 3-fold excess; value is the tracer signal left
[8] = molecular target: TrkC receptor on cells (NIH-TrkC); assay: competition flow cytometry on NIH-TrkC cells; 20 nM Biotin-NT3 tracer, cold competitor at 200 nM; value is the tracer signal left
[9] = molecular target: TrkC receptor on cells (NIH-TrkC); assay: cell-based or functional assay
[10] = molecular target: TrkA receptor on cells (NIH-TrkA); assay: competition flow cytometry on NIH-TrkA cells; 20 nM Biotin-NT3 tracer, cold competitor in 3-fold excess; value is the tracer binding left

Substance	MCF (mean channel fluorescence) [1]	MCF (mean channel fluorescence) [2]	MCF (mean channel fluorescence) [3]	MCF (mean channel fluorescence) [4]	% of maximal binding to p75 [5] [%]	% of maximal binding to TrkC [6] [%]	MCF (mean channel fluorescence) [7]	MCF (mean channel fluorescence) [8]	% survival at 0.1 nM in culture [9] [%]	% of maximal binding to TrkA [10] [%]
Biotin-NT-3 (wild type NT-3 covalently linked to biotin, tracer) (from UniProt P18280 140-258) (ligand)	76	93	38							
NT-3 mutant (SEQ ID NO: 23), D15A/R114A/K115A (from UniProt P18280 140-258) (ligand)				69	89	13	16			
Wild type NT-3 (neurotrophin 3, mature form), unlabeled (from UniProt P18280 140-258) (ligand)						18	20	25	34	36
